Positions count from the first letter of the chain named. Numbers in names are those of the source.
T1: BcgI B subunit (UniProt Q07606 1-341)
T1 sequence (looked up): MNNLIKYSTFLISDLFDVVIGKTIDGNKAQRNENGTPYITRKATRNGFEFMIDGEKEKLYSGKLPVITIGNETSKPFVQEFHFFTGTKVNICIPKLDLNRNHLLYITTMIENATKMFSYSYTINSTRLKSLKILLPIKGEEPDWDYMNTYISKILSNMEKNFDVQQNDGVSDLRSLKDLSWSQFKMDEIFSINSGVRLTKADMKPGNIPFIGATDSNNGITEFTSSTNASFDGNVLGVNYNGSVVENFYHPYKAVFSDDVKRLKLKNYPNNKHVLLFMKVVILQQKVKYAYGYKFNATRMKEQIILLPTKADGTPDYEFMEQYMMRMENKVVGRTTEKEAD

B1: BcgI A subunit, wild type (as a subunit of WT BcgI) (enzyme, UniProt Q07605 1-637, looked up)
chain: MVNEKTSTDQLVRRFIEDLGVTYEEQGSSNIQIKQALRSASKSKSQSGVGKPEFIFFSGNHLIIVEDKLAIDKLEYKNNDGIIDTEFPFRRDYAVNGAVHYARHIIEKTNSYKEVIAIGIAGDGLHYQIHPYFVSETELKKLPEMKSLEDISPENIEEFYKVAVLGELPKEERELREVNKIAADMHEDLRNYGQLEGEKKATVVSAILLALEEPTFSLNQLIGSDRVGGTDGEIIFNAVRVYLENAGIVPYAKVGEMLDQFIFIQRDVTLNTVNSNLEMTPLKYFATTLEAEIMDKIKSNTDFDILGNFYGEFVKYGGNDGNPLGIVLTPRHITSLMAELIGINKSDFVLDPACGTGAFLISAMNRMLGQAENDDERRDIKQNRLYGIEIQQKLFTIATTNMILRGDGKSNLIRDNCLTFDNTIMNGYGINKILMNPPYSQAKNDQTQHLSELSFIQQALEMLVVGGKLCAIVPQSTMVGKNRHDKARKKQILKQHTLETVITLNKDTFHGVGVNPCIVIFKAGIKHPENKRVSFVNFEDDGHVVRKHVGLVGDGTEKGKREHLLAVLAGDEDDGTDLIVKTAIKDTDEWLHSFYYFNDGIPSEDDFYKTVANYLTFQFDMTANGKGYLFEGVEENE
B2: BcgI A subunit, E53A mutant (as a subunit of the BcgI E53A protein) (enzyme, UniProt Q07605 1-637, looked up)
chain: B1 chain with E53A

Assays:
BcgI B subunit [1] = target: T1, BcgI B subunit; assay: AUC
BcgI B subunit [2] = target: T1, BcgI B subunit; assay: native MS

Binder	stoichiometry N (BcgI B subunit [1]) [A per B]	stoichiometry N (BcgI B subunit [2]) [A per B]
B1	2	
B2		2
